# In patent US20210179666A1 (REGENTS OF THE UNIVERSITY OF MINNESOTA, published 2021):
# Like-named read-outs stand apart in the source and are kept apart here. Numbered stars: 1 amine (or outer) side, 2 acyl side, 3 side chain; on linkers, the order of the positions; unused ones are H or OH. Square brackets hold non-standard residues; d marks the D form. N(2-Aminoethyl)Gly = O=C(CN(CCN[*:3])[*:1])[*:2]; Gly(N-(CH2)3-guanidino) = N=C(N)NCCCNCC(=O)O; Nphe = O=C(O)CNCc1ccccc1; Dap = NC[C@H](N)C(=O)O; Sar = CNCC(=O)O
# Columns and labels:
# [1] = target: T1, mouse melanocortin 5 receptor (mouse, UniProt P41149 1-325); test: cell-based or functional assay
# [2] = target: T2, mouse melanocortin 1 receptor (mouse, UniProt Q01727 1-315); test: cell-based or functional assay
# [3] = target: T3, mouse melanocortin 3 receptor (mouse, UniProt P33033 1-323); test: cell-based or functional assay
# [4] = target: T2, mouse melanocortin 1 receptor; test: 125I-NDP-MSH competition, HEK293 cells
# [5] = target: T4, human melanocortin 4 receptor (human, UniProt P32245 1-332); test: 125I-NDP-MSH competition, HEK293 cells
# T4 construct: whole, on cells; the assays used the receptor on HEK293 cells; also called hMC4R
# [6] = target: T1, mouse melanocortin 5 receptor; test: cell-based or functional assay; remark: listed apart in the source
# [7] = target: T5, mouse melanocortin 4 receptor (mouse, UniProt P56450 1-332); test: cell-based or functional assay
# [8] = target: T2, mouse melanocortin 1 receptor; test: cell-based or functional assay; remark: listed apart in the source
# [9] = target: T3, mouse melanocortin 3 receptor; test: cell-based or functional assay; remark: listed apart in the source
# [10] = target: T4, human melanocortin 4 receptor; test: cell-based or functional assay
# [11] = target: T5, mouse melanocortin 4 receptor; test: 125I-NDP-MSH competition; fold vs SEQ ID NO: 1 control
# [12] = target: T4, human melanocortin 4 receptor; test: as above
# [13] = target: T5, mouse melanocortin 4 receptor; test: 125I-NDP-MSH competition, HEK293 cells
# [14] = target: T5, mouse melanocortin 4 receptor; test: cell-based or functional assay; remark: listed apart in the source
# [15] = target: T1, mouse melanocortin 5 receptor; test: 125I-NDP-MSH competition, HEK293 cells
# [16] = target: T3, mouse melanocortin 3 receptor; test: 125I-NDP-MSH competition, HEK293 cells
# [17] = target: T1, mouse melanocortin 5 receptor; test: 125I-NDP-MSH competition; fold vs SEQ ID NO: 2 control
# [18] = target: T5, mouse melanocortin 4 receptor; test: as above
# [19] = target: T2, mouse melanocortin 1 receptor; test: as above
# [20] = target: T3, mouse melanocortin 3 receptor; test: as above
# [21] = target: T4, human melanocortin 4 receptor; test: as above
# T3 sequence (P33033 whole entry): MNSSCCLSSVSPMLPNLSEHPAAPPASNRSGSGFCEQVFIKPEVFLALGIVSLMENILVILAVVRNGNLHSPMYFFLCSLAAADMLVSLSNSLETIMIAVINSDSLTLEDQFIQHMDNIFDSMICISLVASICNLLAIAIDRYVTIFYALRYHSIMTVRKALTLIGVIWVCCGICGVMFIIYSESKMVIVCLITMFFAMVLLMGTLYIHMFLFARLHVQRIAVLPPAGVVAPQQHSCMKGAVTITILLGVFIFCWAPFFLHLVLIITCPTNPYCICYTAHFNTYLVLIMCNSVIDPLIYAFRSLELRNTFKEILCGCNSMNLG
# T5 sequence (P56450 whole entry): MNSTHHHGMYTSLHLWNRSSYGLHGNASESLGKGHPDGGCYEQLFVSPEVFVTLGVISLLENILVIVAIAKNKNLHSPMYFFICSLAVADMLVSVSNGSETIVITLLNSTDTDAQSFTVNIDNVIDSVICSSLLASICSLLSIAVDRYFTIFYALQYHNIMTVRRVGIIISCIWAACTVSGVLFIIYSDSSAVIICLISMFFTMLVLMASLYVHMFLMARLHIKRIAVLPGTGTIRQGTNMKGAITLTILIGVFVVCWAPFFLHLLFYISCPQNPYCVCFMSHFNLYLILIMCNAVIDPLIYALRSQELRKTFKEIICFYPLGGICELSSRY
# T1 sequence (P41149 whole entry): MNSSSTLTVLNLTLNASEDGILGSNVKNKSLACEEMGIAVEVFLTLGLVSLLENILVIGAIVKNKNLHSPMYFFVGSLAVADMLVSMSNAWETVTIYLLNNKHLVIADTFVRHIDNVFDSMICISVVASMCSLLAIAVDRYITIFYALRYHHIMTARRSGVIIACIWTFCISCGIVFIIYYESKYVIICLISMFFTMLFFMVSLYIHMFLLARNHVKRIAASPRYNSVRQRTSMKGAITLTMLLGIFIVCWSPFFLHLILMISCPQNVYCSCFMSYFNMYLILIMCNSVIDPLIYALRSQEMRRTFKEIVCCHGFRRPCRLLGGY
# T4 sequence (P32245 whole entry): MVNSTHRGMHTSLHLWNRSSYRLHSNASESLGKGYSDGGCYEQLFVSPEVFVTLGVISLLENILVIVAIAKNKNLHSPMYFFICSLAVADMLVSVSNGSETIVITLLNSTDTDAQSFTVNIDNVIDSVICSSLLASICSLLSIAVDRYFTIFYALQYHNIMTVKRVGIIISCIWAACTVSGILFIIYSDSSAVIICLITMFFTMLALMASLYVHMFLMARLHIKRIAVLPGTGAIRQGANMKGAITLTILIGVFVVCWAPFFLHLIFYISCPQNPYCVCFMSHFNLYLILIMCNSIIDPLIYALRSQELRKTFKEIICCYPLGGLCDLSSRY
# T2 sequence (Q01727 whole entry): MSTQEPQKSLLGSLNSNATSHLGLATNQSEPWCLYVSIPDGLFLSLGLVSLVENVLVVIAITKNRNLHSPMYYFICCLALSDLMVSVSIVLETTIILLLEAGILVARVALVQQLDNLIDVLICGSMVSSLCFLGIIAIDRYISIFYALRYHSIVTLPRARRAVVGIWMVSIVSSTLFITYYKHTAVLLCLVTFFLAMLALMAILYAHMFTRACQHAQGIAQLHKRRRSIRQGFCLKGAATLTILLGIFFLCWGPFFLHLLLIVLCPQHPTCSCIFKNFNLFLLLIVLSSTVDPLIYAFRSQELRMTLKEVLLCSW
binder,measurement,setting,value
PRFFXAFP (head-to-tail cyclic; NArg (N-(3-guanidino-propyl)-glycine) at 2; Dap at 5; DPro at 8) [MDE8-108-3c],EC50 (cAMP agonist),[1],> 100 µM
same,EC50 (cAMP agonist),[2],> 100 µM
same,EC50 (cAMP agonist),[3],> 100 µM
same,"pA2 (Schild analysis, agonist NDP-MSH, cAMP)",[3],5.9
PRFFXAFP (head-to-tail cyclic; NPhe (N-benzylglycine) at 3; Dap at 5; DPro at 8) [MDE9-32c],EC50 (cAMP partial agonist),[1],0.55 µM
same,"Partial Agonist, percent of NDP-MSH (cAMP)",[1],70%
same,EC50 (cAMP partial agonist),[2],0.11 µM
same,"Partial Agonist, percent of NDP-MSH (cAMP)",[2],80%
same,EC50 (cAMP agonist),[3],> 100 µM
same,"pA2 (Schild analysis, agonist NDP-MSH, cAMP)",[3],6.9
"cyclo(PRFFNAF[dP]) (also: assayed as TFA salt, AgRP 111-116 loop cyclized through DPro-Pro; Asn5 parent scaffold; assayed as TFA salt; also called Compound 1; c[Pro-Arg-Phe-Phe-Asn-Ala-Phe-DPro]) [1 (MDE 6-82-3c)]",IC50,[4],9 µM
cyclo(PHFFNAF[dP]) (Arg111His SNP in the Asn scaffold; also called c[Pro-His-Phe-Phe-Asn-Ala-Phe-DPro]) [ZMK 2-96],IC50,[5],22 µM
same,EC50 (cAMP agonist),[6],> 100 µM
same,EC50 (cAMP agonist),[7],> 100 µM
same,"pA2 (Schild analysis, agonist NDP-MSH, cAMP)",[7],5.3
same,percent maximal stimulatory response at 100 µM (cAMP),[8],23%
same,EC50 (cAMP agonist),[9],> 100 µM
same,"pA2 (Schild analysis, agonist NDP-MSH, cAMP)",[9],< 5
same,"pA2 (Schild analysis, agonist NDP-MSH, cAMP)",[10],5.8
same,Fold Diff,[11],300 fold
same,Fold Diff,[12],300 fold
same,IC50,[13],6.7 µM
cyclo(PRYFNAF[dP]) (Phe112Tyr SNP in the Asn scaffold; also called c[Pro-Arg-Tyr-Phe-Asn-Ala-Phe-DPro]) [ZMK 2-110],IC50,[5],14.3 µM
same,EC50 (cAMP agonist),[7],> 100 µM
same,"pA2 (Schild analysis, agonist NDP-MSH, cAMP)",[7],6.1
same,EC50 (cAMP agonist),[8],> 100 µM
same,EC50 (cAMP agonist),[9],> 100 µM
same,"pA2 (Schild analysis, agonist NDP-MSH, cAMP)",[9],5.8
same,"pA2 (Schild analysis, agonist NDP-MSH, cAMP)",[10],6.5
same,Fold Diff,[11],100 fold
same,Fold Diff,[12],2000 fold
same,IC50,[13],2 µM
PRFFXAFP (head-to-tail cyclic; NPhe (N-benzylglycine) at 4; Dap at 5; DPro at 8) [MDE9-93c],"Inverse Agonist, percent decrease from basal (cAMP)",[1],-10%
same,EC50 (cAMP partial agonist),[2],2.7 µM
same,"Partial Agonist, percent of NDP-MSH (cAMP)",[2],60%
same,EC50 (cAMP agonist),[3],> 100 µM
same,"pA2 (Schild analysis, agonist NDP-MSH, cAMP)",[3],7.1
PRFFXAFP (head-to-tail cyclic; Dap at 5; NAla (N-methylglycine) at 6; DPro at 8) [MDE8-108-6c],EC50 (cAMP agonist),[1],> 100 µM
same,"pA2 (Schild analysis, agonist NDP-MSH, cAMP)",[14],6.1
same,EC50 (cAMP agonist),[2],> 100 µM
same,EC50 (cAMP agonist),[3],> 100 µM
same,"pA2 (Schild analysis, agonist NDP-MSH, cAMP)",[3],5.6
PRFFXAFP (head-to-tail cyclic; Dap at 5; NPhe (N-benzylglycine) at 7; DPro at 8) [MDE8-108-7c],"Inverse Agonist, percent decrease from basal (cAMP)",[1],-10%
same,"pA2 (Schild analysis, agonist NDP-MSH, cAMP)",[14],6.6
same,EC50 (cAMP agonist),[2],> 100 µM
same,EC50 (cAMP agonist),[3],> 100 µM
cyclo(PRFF[N(2-Aminoethyl)Gly]AF[dP]) [MDE9-111c],"Inverse Agonist, percent decrease from basal (cAMP)",[1],-10%
same,percent maximal stimulatory response at 100 µM (cAMP),[2],60%
same,EC50 (cAMP agonist),[3],> 100 µM
same,"pA2 (Schild analysis, agonist NDP-MSH, cAMP)",[3],6.9
cyclo(P[Gly(N-(CH2)3-guanidino)]FFNAF[dP]) (SMILES C[C@@H]1NC(=O)[C@H](CC(N)=O)NC(=O)[C@H](Cc2ccccc2)NC(=O)[C@H](Cc2ccccc2)NC(=O)CN(CCCNC(=N)N)C(=O)[C@@H]2CCCN2C(=O)[C@H]2CCCN2C(=O)[C@H](Cc2ccccc2)NC1=O) [MDE7-26-1c],"pA2 (Schild analysis, agonist NDP-MSH, cAMP)",[14],< 5.5
same,EC50 (cAMP partial agonist),[2],3.1 µM
same,"Partial Agonist, percent of NDP-MSH (cAMP)",[2],50%
cyclo(PR[Nphe]FNAF[dP]) [MDE9-77c],"pA2 (Schild analysis, agonist NDP-MSH, cAMP)",[14],< 5.5
same,EC50 (cAMP agonist),[2],0.24 µM
cyclo(PRF[Nphe]NAF[dP]) [MDE9-88c],"pA2 (Schild analysis, agonist NDP-MSH, cAMP)",[14],8.4
same,EC50 (cAMP partial agonist),[2],5.6 µM
same,"Partial Agonist, percent of NDP-MSH (cAMP)",[2],70%
"PRFFXAFP (head-to-tail cyclic; Dap (diaminopropionic acid) at 5; DPro at 8, Dap5 parent scaffold; assayed as TFA salt; also called Compound 2; c[Pro-Arg-Phe-Phe-Dap-Ala-Phe-DPro]) [2 (MDE 6-82-1c)]","Inverse Agonist, percent decrease from basal (cAMP)",[1],-10%
same,percent maximal stimulatory response at 100 µM (cAMP),[2],36%
same,"pA2 (Schild analysis, agonist NDP-MSH, cAMP)",[3],6.5
same,percent maximal stimulatory response at 100 µM (cAMP),[3],20%
same,IC50,[15],1.7 µM
same,IC50,[4],5.2 µM
cyclo(PRFF[Dap]VF[dP]) (Ala115Val SNP in the Dap scaffold; also called c[Pro-Arg-Phe-Phe-Dap-Val-Phe-DPro]) [ZMK 2-85],IC50,[5],0.0322 µM
same,EC50 (cAMP agonist),[6],> 100 µM
same,"pA2 (Schild analysis, agonist NDP-MSH, cAMP)",[6],6.3
same,percent maximal stimulatory response at 100 µM (cAMP),[7],37%
same,percent maximal stimulatory response at 100 µM (cAMP),[8],79%
same,"pA2 (Schild analysis, agonist NDP-MSH, cAMP)",[9],6.1
same,percent maximal stimulatory response at 100 µM (cAMP),[9],27%
same,"pA2 (Schild analysis, agonist NDP-MSH, cAMP)",[10],7.6
same,IC50,[15],2.7 µM
same,IC50,[4],8 µM
same,IC50,[16],10 µM
cyclo(PHFF[Dap]AF[dP]) (Arg111His SNP in the Dap scaffold; also called c[Pro-His-Phe-Phe-Dap-Ala-Phe-DPro]) [ZMK 2-99],IC50,[5],2.7 µM
same,Fold Diff,[17],7 fold
same,Fold Diff,[18],500 fold
same,Fold Diff,[19],5 fold
same,Fold Diff,[20],5 fold
same,EC50 (cAMP agonist),[6],> 100 µM
same,EC50 (cAMP agonist),[7],> 100 µM
same,"pA2 (Schild analysis, agonist NDP-MSH, cAMP)",[7],6
same,percent maximal stimulatory response at 100 µM (cAMP),[8],56%
same,EC50 (cAMP agonist),[9],> 100 µM
same,"pA2 (Schild analysis, agonist NDP-MSH, cAMP)",[9],5.4
same,"pA2 (Schild analysis, agonist NDP-MSH, cAMP)",[10],6.4
same,Fold Diff,[21],400 fold
same,IC50,[15],12 µM
same,IC50,[13],1 µM
same,IC50,[4],25 µM
same,IC50,[16],15 µM
cyclo(PRYF[Dap]AF[dP]) (Phe112Tyr SNP in the Dap scaffold; also called c[Pro-Arg-Tyr-Phe-Dap-Ala-Phe-DPro]) [ZMK 2-112],IC50,[5],1.02 µM
same,Fold Diff,[17],20 fold
same,Fold Diff,[18],70 fold
same,Fold Diff,[19],4 fold
same,Fold Diff,[20],9 fold
same,EC50 (cAMP agonist),[6],> 100 µM
same,"pA2 (Schild analysis, agonist NDP-MSH, cAMP)",[6],6.5
same,EC50 (cAMP agonist),[7],> 100 µM
same,"pA2 (Schild analysis, agonist NDP-MSH, cAMP)",[7],7.3
same,percent maximal stimulatory response at 100 µM (cAMP),[8],48%
same,EC50 (cAMP agonist),[9],> 100 µM
same,"pA2 (Schild analysis, agonist NDP-MSH, cAMP)",[9],6.5
same,"pA2 (Schild analysis, agonist NDP-MSH, cAMP)",[10],7.5
same,Fold Diff,[21],100 fold
same,IC50,[15],36 µM
same,IC50,[13],0.134 µM
same,IC50,[4],18 µM
same,IC50,[16],28 µM
cyclo(PCFF[Dap]AF[dP]) (Arg111Cys SNP in the Dap scaffold; also called c[Pro-Cys-Phe-Phe-Dap-Ala-Phe-DPro]) [ZMK 3-20],IC50,[5],15.7 µM
same,Fold Diff,[18],5200 fold
same,Fold Diff,[19],6 fold
same,Fold Diff,[20],15 fold
same,EC50 (cAMP agonist),[6],> 100 µM
same,"pA2 (Schild analysis, agonist NDP-MSH, cAMP)",[7],< 5
same,percent maximal stimulatory response at 100 µM (cAMP),[7],42%
same,EC50 (cAMP agonist),[8],4 µM
same,"pA2 (Schild analysis, agonist NDP-MSH, cAMP)",[9],< 5
same,percent maximal stimulatory response at 100 µM (cAMP),[9],29%
same,"pA2 (Schild analysis, agonist NDP-MSH, cAMP)",[10],< 5
same,Fold Diff,[21],2100 fold
same,IC50,[13],10 µM
same,IC50,[4],33 µM
same,IC50,[16],49 µM
cyclo(PRFFN[Sar]F[dP]) (SMILES CN1CC(=O)N[C@@H](Cc2ccccc2)C(=O)N2CCC[C@@H]2C(=O)N2CCC[C@H]2C(=O)N[C@@H](CCCNC(=N)N)C(=O)N[C@@H](Cc2ccccc2)C(=O)N[C@@H](Cc2ccccc2)C(=O)N[C@@H](CC(N)=O)C1=O) [MDE7-26-4c],"pA2 (Schild analysis, agonist NDP-MSH, cAMP)",[14],< 5.5
same,EC50 (cAMP agonist),[2],1 µM
cyclo(PRFFNA[Nphe][dP]) [MDE7-26-5c],"pA2 (Schild analysis, agonist NDP-MSH, cAMP)",[14],< 5.5
same,percent maximal stimulatory response at 100 µM (cAMP),[2],85%
same,percent maximal stimulatory response at 100 µM (cAMP),[3],60%
